Laboratory results reported in publication PMC5034038.

How the values were obtained:
[1] = target: GFP-CaV2.2 K-R-HA (rabbit) (UniProt Q05152)
[2] = target: GFP-CaV2.2-HA (rabbit) (UniProt Q05152)

- Gmax (whole cell conductance) from Boltzmann fits, whole cell patch clamp of tsA-201 cells with CaVα2δ-1, 1 mM Ba2+ [1]: 4.5 nS/pF
- IBa current density at +5 mV, whole cell patch clamp of tsA-201 cells with CaVα2δ-1, 1 mM Ba2+ [1]: 148 pA/pF
- V50 of activation from Boltzmann fits of current density-voltage relationships, whole cell patch clamp of tsA-201 cells with CaVα2δ-1, 1 mM Ba2+ [1]: 1.3 mV
- Gmax (whole cell conductance) from Boltzmann fits, whole cell patch clamp of tsA-201 cells with CaVα2δ-1, 1 mM Ba2+ [2]: 7.7 nS/pF
- IBa current density at +5 mV, whole cell patch clamp of tsA-201 cells with CaVα2δ-1, 1 mM Ba2+ [2]: 277 pA/pF
- V50 of activation from Boltzmann fits of current density-voltage relationships, whole cell patch clamp of tsA-201 cells with CaVα2δ-1, 1 mM Ba2+ [2]: -4.7 mV
Substance: CaVβ1b-GFP (from UniProt P54283 1-597) (natural protein)
